Assay [1] has as its target CD56 on the surface of human neuroblastoma cells (human) (UniProt P13591). The assay can be described thus: flow cytometry, isotype control staining of Kelly cells.
Assay [2] shares this target. Kind of assay: flow cytometry, isotype control staining of SKNAS cells. A general note: Flow cytometry measures light scatter and fluorescence of single cells or particles in a stream.
Assay [3] has the same target. The assay can be described thus: flow cytometry, MY31 staining of SKNAS cells after overnight treatment with 12.5 nM m906 (remaining surface CD56).
For assay [4] the target is unchanged. The assay can be described thus: flow cytometry, MY31 staining of Kelly cells after overnight treatment with 50 nM m906 (remaining surface CD56).
Assay [5] shares this target. Kind of assay: flow cytometry, MY31 staining of Kelly cells after overnight treatment with 25 nM control IgG.
The target is the same in assay [6]. Kind of assay: flow cytometry, MY31 staining of SKNAS cells, untreated.
For assay [7] the target is unchanged. Kind of assay: flow cytometry, MY31 staining of SKNAS cells after overnight treatment with 25 nM m906 (remaining surface CD56).
For assay [8] the target is unchanged. The assay can be described thus: flow cytometry, MY31 staining of SKNAS cells after overnight treatment with 25 nM control IgG.
Assay [9] has the same target. The assay can be described thus: flow cytometry, MY31 staining of SKNAS cells after overnight treatment with 50 nM m906 (remaining surface CD56).
Assay [10] shares this target. The assay can be described thus: flow cytometry, MY31 staining of Kelly cells after overnight treatment with 12.5 nM m906 (remaining surface CD56).
Assay [11] shares this target. Kind of assay: flow cytometry, MY31 staining of Kelly cells after overnight treatment with 25 nM m906 (remaining surface CD56).
Assay [12] shares this target. Kind of assay: flow cytometry, MY31 staining of Kelly cells, untreated.

On to PE Isotype Control (antibody), for which the Geometric Mean in assay [1] came to 4710; in [2] it was 10700.

For the substance anti-CD56 antibody MY31, the Geometric Mean worked out at 10200 in [3]; 6030 in assay [4]; 63700 in [5]; 12500 in assay [6]; 10600 in assay [7]; 13300 in assay [8]. For the same substance, the Geometric Mean in [9] was found to be 10300; in [10] it was 7150; in assay [11], 6420; in [12], 53700.
